According to patent US20140087995A1 (published 2014):
Numbered stars: 1 amine (or outer) side, 2 acyl side, 3 side chain; on linkers, the order of the positions; unused ones are H or OH. Bridge positions count the residues as written; N and C are the ends. Square brackets hold non-standard residues; d marks the D form. Side chains are listed from the residue outwards. Ends that are not written are not given here. * marks the point of attachment. C20 diacid = O=C(O)CCCCCCCCCCCCCCCCCCC(=O)*; γGlu = O=C(O)[C@H](CCC(=O)[*:2])N[*:1]

T1: human calcitonin receptor (human, UniProt P30988 25-474)
T1 construct: whole, on cells; also called hCTR; hCT
T1 sequence (looked up): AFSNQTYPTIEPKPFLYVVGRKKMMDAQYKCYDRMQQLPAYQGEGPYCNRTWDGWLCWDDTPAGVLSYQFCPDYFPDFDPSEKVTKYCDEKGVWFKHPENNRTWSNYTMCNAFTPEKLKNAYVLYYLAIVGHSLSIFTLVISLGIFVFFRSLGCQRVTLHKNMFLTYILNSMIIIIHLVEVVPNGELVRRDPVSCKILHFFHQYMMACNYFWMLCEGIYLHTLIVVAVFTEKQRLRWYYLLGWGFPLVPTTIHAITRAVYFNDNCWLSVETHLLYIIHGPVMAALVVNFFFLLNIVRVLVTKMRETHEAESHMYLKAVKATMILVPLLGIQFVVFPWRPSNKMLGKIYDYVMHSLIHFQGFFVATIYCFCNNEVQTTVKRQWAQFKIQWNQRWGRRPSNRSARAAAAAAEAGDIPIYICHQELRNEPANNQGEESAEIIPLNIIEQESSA

T2: human amylin receptor (amylin 3(a) receptor: human calcitonin receptor with RAMP-3) (human, UniProt P30988 25-474; O60896 24-148, limits assumed)
T2 sequence (looked up) 1: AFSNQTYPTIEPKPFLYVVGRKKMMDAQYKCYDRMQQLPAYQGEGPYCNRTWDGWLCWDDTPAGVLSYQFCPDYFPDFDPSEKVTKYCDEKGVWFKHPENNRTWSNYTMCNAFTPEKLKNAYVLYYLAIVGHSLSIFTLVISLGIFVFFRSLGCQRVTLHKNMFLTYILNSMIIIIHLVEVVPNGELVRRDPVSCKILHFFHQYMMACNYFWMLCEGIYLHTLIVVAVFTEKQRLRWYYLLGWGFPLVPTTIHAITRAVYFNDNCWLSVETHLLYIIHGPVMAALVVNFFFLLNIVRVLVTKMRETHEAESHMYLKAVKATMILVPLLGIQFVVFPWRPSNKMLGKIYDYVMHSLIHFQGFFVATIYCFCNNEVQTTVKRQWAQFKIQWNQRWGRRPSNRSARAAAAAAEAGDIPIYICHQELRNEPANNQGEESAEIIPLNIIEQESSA
T2 sequence (looked up) 2: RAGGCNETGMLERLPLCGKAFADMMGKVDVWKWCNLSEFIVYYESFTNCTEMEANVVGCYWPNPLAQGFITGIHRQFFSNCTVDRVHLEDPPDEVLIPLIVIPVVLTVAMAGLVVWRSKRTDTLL

T3: human calcitonin receptor (human, UniProt P30988 25-474)
T3 sequence (looked up): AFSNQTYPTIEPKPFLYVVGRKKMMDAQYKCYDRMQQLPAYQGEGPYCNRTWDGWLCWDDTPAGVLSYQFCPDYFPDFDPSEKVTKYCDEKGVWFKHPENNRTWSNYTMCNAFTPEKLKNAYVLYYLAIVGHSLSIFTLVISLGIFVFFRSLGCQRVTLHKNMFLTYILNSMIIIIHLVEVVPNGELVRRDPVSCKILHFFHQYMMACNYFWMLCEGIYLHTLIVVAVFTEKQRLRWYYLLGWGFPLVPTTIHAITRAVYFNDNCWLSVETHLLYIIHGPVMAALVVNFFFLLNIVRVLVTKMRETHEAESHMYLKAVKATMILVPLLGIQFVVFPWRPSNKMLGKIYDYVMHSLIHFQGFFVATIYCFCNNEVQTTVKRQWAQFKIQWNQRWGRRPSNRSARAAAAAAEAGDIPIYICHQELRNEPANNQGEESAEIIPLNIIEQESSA


Tests used:
[1] = target: T1, human calcitonin receptor; experiment: SPA competition against 125I-calcitonin, membranes of BHK cells with human calcitonin receptor (Assay VII)
Outline: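 BHK hCTR membranes 35 ng/μL + SPA beads 0.05 mg/well; buffer 50 mM Hepes pH 7.4, 1 mM CaCl2, 5 mM MgCl₂, 0.1% OA, 0.02% Tween20. 120 min, 25° C., shaking. Scintillation count; IC50 by one-site binding competition.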

[2] = target: T1, human calcitonin receptor; experiment: ratio of IC50 at human calcitonin receptor to IC50 at human amylin receptor (SPA competition assays)
Outline: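 Competition binding by SPA with cell membranes (35 ng/μL) and SPA beads in 50 mM Hepes pH 7.4 with 1 mM CaCl2, 5 mM MgCl2, 0.1% OA and 0.02% Tween20. Incubated 120 min at 25 °C with shaking, then counted.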

[3] = target: T2, human amylin receptor (amylin 3(a) …); experiment: cell-based or functional assay
[4] = target: T3, human calcitonin receptor; experiment: cell-based or functional assay

Binder | IC50 [1] | Ratio hCT/hAmylin binding [2] | Ratio hCT/hAmylin funct. [3] | hAmylin-R funct. EC50 (pM) [3] | hCTR funct. EC50 (pM) [4]
K([γGlu-C20 diacid])CNTATCATQRLAEFLRHSSPNFGAIPSSTNVGPRTY-NH2 (disulfide 2-7; N-terminus assumed; SMILES CC[C@H](C)[C@H](NC(=O)[C@H](C)NC(=O)CNC(=O)[C@H](Cc1ccccc1)NC(=O)[C@H](CC(N)=O)NC(=O)[C@@H]1CCCN1C(=O)[C@H](CO)NC(=O)[C@H](CO)NC(=O)[C@H](Cc1c[nH]cn1)NC(=O)[C@H](CCCNC(=N)N)NC(=O)[C@H](CC(C)C)NC(=O)[C@H](Cc1ccccc1)NC(=O)[C@H](CCC(=O)O)NC(=O)[C@H](C)NC(=O)[C@H](CC(C)C)NC(=O)[C@H](CCCNC(=N)N)NC(=O)[C@H](CCC(N)=O)NC(=O)[C@@H](NC(=O)[C@H](C)NC(=O)[C@@H]1CSSC[C@H](NC(=O)[C@@H](N)CCCCNC(=O)CC[C@H](NC(=O)CCCCCCCCCCCCCCCCCCC(=O)O)C(=O)O)C(=O)N[C@@H](CC(N)=O)C(=O)N[C@@H]([C@@H](C)O)C(=O)N[C@@H](C)C(=O)N[C@@H]([C@@H](C)O)C(=O)N1)[C@@H](C)O)C(=O)N1CCC[C@H]1C(=O)N[C@@H](CO)C(=O)N[C@@H](CO)C(=O)N[C@H](C(=O)N[C@@H](CC(N)=O)C(=O)N[C@H](C(=O)NCC(=O)N1CCC[C@H]1C(=O)N[C@@H](CCCNC(=N)N)C(=O)N[C@H](C(=O)N[C@@H](Cc1ccc(O)cc1)C(N)=O)[C@@H](C)O)C(C)C)[C@@H](C)O) | 6.3 nM | 38.6 |  |  | 
K([γGlu-γGlu-C20 diacid])CNTATCATQRLA[dD]FLRHSSPNFGAIPSSTNVGSRTY-NH2 (disulfide 2-7; N-terminus assumed; SMILES CC[C@H](C)[C@H](NC(=O)[C@H](C)NC(=O)CNC(=O)[C@H](Cc1ccccc1)NC(=O)[C@H](CC(N)=O)NC(=O)[C@@H]1CCCN1C(=O)[C@H](CO)NC(=O)[C@H](CO)NC(=O)[C@H](Cc1c[nH]cn1)NC(=O)[C@H](CCCNC(=N)N)NC(=O)[C@H](CC(C)C)NC(=O)[C@H](Cc1ccccc1)NC(=O)[C@@H](CC(=O)O)NC(=O)[C@H](C)NC(=O)[C@H](CC(C)C)NC(=O)[C@H](CCCNC(=N)N)NC(=O)[C@H](CCC(N)=O)NC(=O)[C@@H](NC(=O)[C@H](C)NC(=O)[C@@H]1CSSC[C@H](NC(=O)[C@@H](N)CCCCNC(=O)CC[C@H](NC(=O)CC[C@H](NC(=O)CCCCCCCCCCCCCCCCCCC(=O)O)C(=O)O)C(=O)O)C(=O)N[C@@H](CC(N)=O)C(=O)N[C@@H]([C@@H](C)O)C(=O)N[C@@H](C)C(=O)N[C@@H]([C@@H](C)O)C(=O)N1)[C@@H](C)O)C(=O)N1CCC[C@H]1C(=O)N[C@@H](CO)C(=O)N[C@@H](CO)C(=O)N[C@H](C(=O)N[C@@H](CC(N)=O)C(=O)N[C@H](C(=O)NCC(=O)N[C@@H](CO)C(=O)N[C@@H](CCCNC(=N)N)C(=O)N[C@H](C(=O)N[C@@H](Cc1ccc(O)cc1)C(N)=O)[C@@H](C)O)C(C)C)[C@@H](C)O) | 112 nM |  |  |  | 
K([γGlu-C20 diacid])CNTATCATQRLADFLRHSSPNFGAIPSSTNVGPRTY-NH2 (disulfide 2-7; N-terminus assumed; SMILES CC[C@H](C)[C@H](NC(=O)[C@H](C)NC(=O)CNC(=O)[C@H](Cc1ccccc1)NC(=O)[C@H](CC(N)=O)NC(=O)[C@@H]1CCCN1C(=O)[C@H](CO)NC(=O)[C@H](CO)NC(=O)[C@H](Cc1c[nH]cn1)NC(=O)[C@H](CCCNC(=N)N)NC(=O)[C@H](CC(C)C)NC(=O)[C@H](Cc1ccccc1)NC(=O)[C@H](CC(=O)O)NC(=O)[C@H](C)NC(=O)[C@H](CC(C)C)NC(=O)[C@H](CCCNC(=N)N)NC(=O)[C@H](CCC(N)=O)NC(=O)[C@@H](NC(=O)[C@H](C)NC(=O)[C@@H]1CSSC[C@H](NC(=O)[C@@H](N)CCCCNC(=O)CC[C@H](NC(=O)CCCCCCCCCCCCCCCCCCC(=O)O)C(=O)O)C(=O)N[C@@H](CC(N)=O)C(=O)N[C@@H]([C@@H](C)O)C(=O)N[C@@H](C)C(=O)N[C@@H]([C@@H](C)O)C(=O)N1)[C@@H](C)O)C(=O)N1CCC[C@H]1C(=O)N[C@@H](CO)C(=O)N[C@@H](CO)C(=O)N[C@H](C(=O)N[C@@H](CC(N)=O)C(=O)N[C@H](C(=O)NCC(=O)N1CCC[C@H]1C(=O)N[C@@H](CCCNC(=N)N)C(=O)N[C@H](C(=O)N[C@@H](Cc1ccc(O)cc1)C(N)=O)[C@@H](C)O)C(C)C)[C@@H](C)O) | 42.5 nM | 151 |  |  | 
K([γGlu-C20 diacid])CNTATCATQRLADFLRHSSPNFGAIPSSTNVGPETY-NH2 (disulfide 2-7 (inferred)) |  |  | 3.9 | 288 pM | 1120 pM
K([γGlu-C20 diacid])CNTATCATQRLAEFLRHSSPNFGAIPSSTNVGPHTY-NH2 (disulfide 2-7 (inferred)) |  |  |  | 101 pM | 1450 pM
K([γGlu-γGlu-C20 diacid])CNTATCATQRLAEFLRHSSNNPGAILSSTNVGPETY-NH2 (disulfide 2-7 (inferred)) |  |  |  | 5170 pM | 89600 pM
K([γGlu-γGlu-C20 diacid])CNTATCATQRLAEFLRHSSPNFGAIPSSTNVGPETP-NH2 (disulfide 2-7 (inferred)) |  |  | 0.8 | 132 pM | 102 pM
K([γGlu-γGlu-C20 diacid])CNTATCATQRLAEFLRHSSPNFGAIPSSTNVGPNTF-NH2 (disulfide 2-7 (inferred)) |  |  | 9.9 | 216 pM | 2140 pM
K([γGlu-γGlu-C20 diacid])CNTATCATQRLADFLRHSSPNFGAIPSSTNVGPRTY-NH2 (disulfide 2-7 (inferred), also called compound 130) |  |  |  | 162 pM | 7280 pM
K([γGlu-γGlu-C20 diacid])CNTATCATQRLASFLRHSSPNFGAIPSSTNVGPETY-NH2 (disulfide 2-7 (inferred), also called compound 120) |  |  | 8.1 | 109 pM | 887 pM
K([γGlu-γGlu-C20 diacid])CNTATCATQRLANFLRHSSPNFGAIPSSTPVGPRTY-NH2 (disulfide 2-7 (inferred)) |  |  |  | 333 pM | 8660 pM
K([γGlu-γGlu-C20 diacid])CNTATCATQRLA[dD]FLRHSSPNFGAIPSSTNVGSRTY-NH2 (disulfide 2-7 (inferred)) |  |  |  | 383 pM | 100000 pM
K([γGlu-γGlu-C20 diacid])CNTATCATQRLAEFLRHSSPNFGAILSSTPVGPETY-NH2 (disulfide 2-7 (inferred)) |  |  | 5.8 | 222 pM | 1280 pM
K([γGlu-γGlu-C20 diacid])CNTATCATQRLAEFLRHSSPNFGAIPSSTNVGPHTY-NH2 (disulfide 2-7 (inferred)) |  |  |  | 172 pM | 2830 pM
